Test results published in the supplement of paper PMC9112550, “Optimization of the antimicrobial peptide Bac7 by deep mutational scanning” (BMC Biology, 2022).

Test system: Escherichia coli TOP10
Test: shrunken log2 fold change of peptide-encoding DNA abundance (4.5 h post-induction vs induction); higher = less antimicrobial activity (less host growth inhibition)
Details: time post-induction: 4.5 h; library: site-saturation at positions 5, 18, 19, 20
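Further: peptides expressed intracellularly from a pBAD plasmid library in pooled LB shake-flask culture, induced with 0.3% L-arabinose, DNA abundance read by NGS, three biological replicates, DESeq2 with apeglm shrinkage.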

| Sequence | shrunken log2 fold change |
| --- | --- |
| RRIRSRPPRLPRPRPRPWIGPRP | -0.0735 |
| RRIRMRPPRLPRPRPRPGRKPRP | 1.32 |
| RRIRFRPPRLPRPRPRPIMYPRP | -0.33 |
| RRIRERPPRLPRPRPRPNMQPRP | -0.664 |
| RRIRNRPPRLPRPRPRPAAYPRP | -0.0872 |
| RRIRIRPPRLPRPRPRPRMWPRP | -0.0292 |
| RRIRNRPPRLPRPRPRPIGVPRP | 0.249 |
| RRIRDRPPRLPRPRPRPHYHPRP | -0.806 |
| RRIRCRPPRLPRPRPRPYKGPRP | -0.153 |
| RRIRIRPPRLPRPRPRPMKYPRP | -0.104 |
| RRIRNRPPRLPRPRPRPTYNPRP | -0.692 |
| RRIRTRPPRLPRPRPRPWLQPRP | -0.187 |
| RRIRKRPPRLPRPRPRPGKLPRP | -0.208 |
| RRIRRRPPRLPRPRPRPELFPRP | 1.06 |
| RRIRSRPPRLPRPRPRPHSLPRP | 0.0616 |
| RRIRHRPPRLPRPRPRPIGKPRP | 0.0218 |
| RRIRERPPRLPRPRPRPGDIPRP | -0.072 |
| RRIRERPPRLPRPRPRPCKRPRP | -0.294 |
| RRIRSRPPRLPRPRPRPELHPRP | 0.249 |
| RRIRTRPPRLPRPRPRPLAIPRP | 0.00788 |
| RRIRNRPPRLPRPRPRPTTSPRP | -0.292 |
| RRIRYRPPRLPRPRPRPVSLPRP | -0.267 |
| RRIRYRPPRLPRPRPRPHREPRP | -0.00804 |
| RRIRGRPPRLPRPRPRPCEQPRP | 0.48 |
| RRIRARPPRLPRPRPRPFPSPRP | 0.131 |

| Sequence | shrunken log2 fold change |
| --- | --- |
| RRIRPRPPRLPRPRPRPMLVPRP | 0.0962 |
| RRIRFRPPRLPRPRPRPKFNPRP | -0.588 |
| RRIRWRPPRLPRPRPRPVFNPRP | -0.259 |
| RRIRSRPPRLPRPRPRPTFHPRP | -0.192 |
| RRIRIRPPRLPRPRPRPIVWPRP | 0.136 |
| RRIRLRPPRLPRPRPRPRIMPRP | -0.333 |
| RRIRFRPPRLPRPRPRPSFHPRP | -0.694 |
| RRIRRRPPRLPRPRPRPIPVPRP | 0.265 |
| RRIRDRPPRLPRPRPRPQIKPRP | 0.0877 |
| RRIRGRPPRLPRPRPRPNWYPRP | -0.0124 |
| RRIRNRPPRLPRPRPRPCPNPRP | -0.344 |
| RRIRYRPPRLPRPRPRPTWGPRP | -0.19 |
| RRIRGRPPRLPRPRPRPQVFPRP | 0.0336 |
| RRIRQRPPRLPRPRPRPVITPRP | -0.414 |
| RRIRHRPPRLPRPRPRPNVHPRP | -0.113 |
| RRIRQRPPRLPRPRPRPFFNPRP | -0.438 |
| RRIRVRPPRLPRPRPRPIVTPRP | -0.214 |
| RRIRLRPPRLPRPRPRPWDAPRP | 0.135 |
| RRIRNRPPRLPRPRPRPEFCPRP | 0.0216 |
| RRIRPRPPRLPRPRPRPGSAPRP | 0.18 |
| RRIRMRPPRLPRPRPRPYYHPRP | -0.459 |
| RRIRHRPPRLPRPRPRPYAWPRP | -0.0931 |
| RRIRQRPPRLPRPRPRPSTCPRP | -0.0113 |
| RRIRVRPPRLPRPRPRPMHHPRP | -0.257 |
| RRIRTRPPRLPRPRPRPLHDPRP | -0.21 |

| Sequence | shrunken log2 fold change |
| --- | --- |
| RRIRNRPPRLPRPRPRPPKNPRP | 0.196 |
| RRIRWRPPRLPRPRPRPLAMPRP | 0.0898 |
| RRIRGRPPRLPRPRPRPDCRPRP | 0.68 |
| RRIRNRPPRLPRPRPRPYQTPRP | -0.00141 |
| RRIRARPPRLPRPRPRPHYIPRP | -0.296 |
| RRIRPRPPRLPRPRPRPKFAPRP | 0.409 |
| RRIRQRPPRLPRPRPRPTELPRP | 0.124 |
| RRIRKRPPRLPRPRPRPSHEPRP | -0.218 |
| RRIRFRPPRLPRPRPRPQEWPRP | -0.149 |
| RRIRERPPRLPRPRPRPQKPPRP | 0.0657 |
| RRIRNRPPRLPRPRPRPPGPPRP | 0.419 |
| RRIRHRPPRLPRPRPRPDQDPRP | -0.0366 |
| RRIRFRPPRLPRPRPRPYYKPRP | -0.207 |
| RRIRLRPPRLPRPRPRPLFGPRP | -0.0652 |
| RRIRIRPPRLPRPRPRPFCWPRP | -0.0029 |
| RRIRVRPPRLPRPRPRPSFTPRP | -0.301 |
| RRIRPRPPRLPRPRPRPGANPRP | 0.364 |
| RRIRLRPPRLPRPRPRPWWPPRP | 0.0144 |
| RRIRYRPPRLPRPRPRPIPAPRP | -0.0717 |
| RRIRSRPPRLPRPRPRPLEDPRP | 0.0492 |
| RRIRMRPPRLPRPRPRPTVNPRP | 0.177 |
| RRIRMRPPRLPRPRPRPIFGPRP | 0.0873 |
| RRIRNRPPRLPRPRPRPVQVPRP | -0.317 |
| RRIRTRPPRLPRPRPRPNGFPRP | -0.0646 |
| RRIRFRPPRLPRPRPRPTLHPRP | -0.0536 |

| Sequence | shrunken log2 fold change |
| --- | --- |
| RRIRGRPPRLPRPRPRPTAGPRP | 1.15 |
| RRIRSRPPRLPRPRPRPHHCPRP | -0.0623 |
| RRIRQRPPRLPRPRPRPQKNPRP | -0.297 |
| RRIRYRPPRLPRPRPRPGNRPRP | 0.0823 |
| RRIRYRPPRLPRPRPRPDAVPRP | -0.365 |
| RRIRDRPPRLPRPRPRPCGYPRP | 0.0572 |
| RRIRQRPPRLPRPRPRPNKWPRP | -0.0433 |
| RRIRQRPPRLPRPRPRPNMLPRP | -0.285 |
| RRIRIRPPRLPRPRPRPVGGPRP | 0.0792 |
| RRIRNRPPRLPRPRPRPDWAPRP | -0.0406 |
| RRIRCRPPRLPRPRPRPVYHPRP | -0.53 |
| RRIRCRPPRLPRPRPRPNPLPRP | -0.131 |
| RRIRPRPPRLPRPRPRPNTDPRP | -0.374 |
| RRIRHRPPRLPRPRPRPKHHPRP | -0.493 |
| RRIRERPPRLPRPRPRPLAYPRP | -0.203 |
| RRIRQRPPRLPRPRPRPFCYPRP | -0.264 |
| RRIRERPPRLPRPRPRPRGPPRP | 0.662 |
| RRIRPRPPRLPRPRPRPATPPRP | 0.216 |
| RRIRMRPPRLPRPRPRPNFIPRP | -0.371 |
| RRIRGRPPRLPRPRPRPDYHPRP | -0.139 |
| RRIRMRPPRLPRPRPRPCAMPRP | 0.424 |
| RRIRVRPPRLPRPRPRPRKQPRP | 0.383 |
| RRIRLRPPRLPRPRPRPGQTPRP | 0.277 |
| RRIRSRPPRLPRPRPRPDYTPRP | -0.342 |
| RRIRHRPPRLPRPRPRPQFRPRP | -0.0324 |

| Sequence | shrunken log2 fold change |
| --- | --- |
| RRIRQRPPRLPRPRPRPLYYPRP | 0.614 |
| RRIRGRPPRLPRPRPRPLNIPRP | -0.148 |
| RRIRCRPPRLPRPRPRPGTTPRP | 0.844 |
| RRIRPRPPRLPRPRPRPLTTPRP | 0.135 |
| RRIRTRPPRLPRPRPRPEFNPRP | 0.085 |
| RRIRARPPRLPRPRPRPINNPRP | -0.441 |
| RRIRLRPPRLPRPRPRPWIGPRP | -0.177 |
| RRIRNRPPRLPRPRPRPLVRPRP | -0.372 |
| RRIRVRPPRLPRPRPRPNTYPRP | -0.71 |
| RRIRGRPPRLPRPRPRPSVFPRP | 0.465 |
| RRIRGRPPRLPRPRPRPETAPRP | 1.76 |
| RRIRIRPPRLPRPRPRPWVQPRP | -0.0105 |
| RRIRGRPPRLPRPRPRPQADPRP | 0.43 |
| RRIRKRPPRLPRPRPRPDPEPRP | -0.0797 |
| RRIRLRPPRLPRPRPRPGQKPRP | -0.00989 |
| RRIRGRPPRLPRPRPRPYFLPRP | -0.345 |
| RRIRIRPPRLPRPRPRPPLQPRP | 0.0345 |
| RRIRFRPPRLPRPRPRPQLMPRP | -0.32 |
| RRIRNRPPRLPRPRPRPVNIPRP | -0.435 |
| RRIRRRPPRLPRPRPRPNWAPRP | 0.164 |
| RRIRCRPPRLPRPRPRPEMLPRP | -0.077 |
| RRIRKRPPRLPRPRPRPNGFPRP | 0.49 |
| RRIRIRPPRLPRPRPRPRIVPRP | -1.21 |
| RRIRFRPPRLPRPRPRPPPHPRP | 1.37 |
| RRIRNRPPRLPRPRPRPMGTPRP | -0.0967 |
